Key:
MRL/FAS^lpr mice [1] = experiment: IgG immunofluorescence staining of renal tissue; type: in vivo; conditions: 9 weeks, FIG. 7
Experimental: Additionally, the collected kidney tissues were frozen, sectioned at a thickness of 4 μm, and fixed in cold acetone for 5 minutes, followed by two washes with phosphate-buffered saline (PBS) for 5 minutes each. To eliminate non-specific reactions, blocking was performed for 30 minutes using a PBS solution containing 1% bovine serum albumin and 0.05% Tween-20. The sections were then incubated at room temperature for 1 hour with FITC-conjugated goat anti-mouse IgG antibody (1:200, AP308F, Merck Millipore). After three washes with PBS for 5 minutes each, nuclear staining was performed using DAPI, and the sections were covered with a cover glass using mounting medium. The samples were then examined using a confocal laser scanning microscope (C2 Plus, Nikon). […] Furthermore, it was confirmed that the glomerular lesion scores decreased in the positive control group (Mycophenolate) and the sGal-9 treatment groups (sGal-9 2 mg/kg and sGal-9 4 mg/kg) compared to the negative control group (Vehicle).

anti-dsDNA antibodies = experiment: Plasma anti-dsDNA antibody levels (ELISA) in an in vivo model of systemic lupus erythematosus; design: species or system mice; conditions: 9 weeks, FIG. 8
Experimental: Anti-dsDNA antibodies are a type of antinuclear antibody (ANA) that target intracellular nuclear components and are present at high titers in systemic lupus erythematosus (SLE). These antibodies are associated with the persistent progression of kidney inflammation and damage.
Specifically, after the completion of the experiment, cardiac blood collection was performed on the experimental animals from <1-1>. The collected blood was allowed to coagulate for 30 minutes using a capillary blood collection tube (Cat. 365967, BD) and then centrifuged at 6,000×g for 10 minutes to obtain plasma. The obtained plasma was diluted at a ratio of 1:2,500, and the concentration of anti-dsDNA antibodies was measured using a Mouse Anti-dsDNA IgG Antibody ELISA Kit (Cat. 3031, Chondrex) according to the manufacturer's protocol.

MRL/FAS^lpr mice [2] = experiment: Histomorphological evaluation of renal tissue (H&E staining); type: in vivo; conditions: 9 weeks, FIG. 6; for inflammatory cell infiltration within the glomeruli: H&E
Description: Specifically, after the completion of the experiment, the experimental animals of <1-1> were sacrificed, and renal tissues were collected. The collected renal tissues were fixed and dehydrated in 10% formaldehyde and subsequently embedded in paraffin. The fixed renal tissues were sectioned to a thickness of 2 μm and stained with hematoxylin and eosin (H&E). The sectioned tissues were covered with a coverslip and observed under an optical microscope at 400× magnification. Four regions were imaged for each tissue, and two or more researchers assigned scores based on the evaluation items and criteria for histomorphological assessment shown in [Table 3]. The average of the researchers' scores was determined as the scoring value, and the mean of the scoring values for the four regions was calculated as the final score for each tissue.

MRL/FAS^lpr mice [3] = experiment: Clinical indicators (skin, lymphadenopathy, proteinuria scores) in an in vivo model of systemic lupus erythematosus; conditions: 9 weeks; for reduction in skin lesions compared to positive control (Mycophenolate) / skin lesions (skin score) compared to negative control (Vehicle): FIG. 2; for inhibitory effect on lymphadenopathy compared to positive control (Mycophenolate) / lymphadenopathy score compared to negative control (Vehicle): FIG. 3; for proteinuria compared to negative control (Vehicle): FIG. 4
Description: Specifically, the occurrence and severity of lupus were regularly observed from group allocation to the end of the experiment in the experimental animals from <1-1> and evaluated according to the criteria shown in [Table 2].

MRL/FAS^lpr mice [4] = experiment: Spleen weight in an in vivo model of systemic lupus erythematosus; conditions: sGal-9 2 mg/kg SC once per week, 9 weeks, FIG. 5
Description: Additionally, after the completion of the experiment, the experimental animals from <1-1> were sacrificed, and the spleens were extracted for weight measurement.

[5] = sGal-9 2 mg/kg SC once per week
[6] = sGal-9 4 mg/kg SC once per week

B1: sGal-9: recombinant stabilized galectin-9 protein of Sequence No. 1: linker entirely deleted, CCRD positions 1 to 10 deleted, alanine 13 substituted with proline (protein)
chain: MAFSGSQAPYLSPAVPFSGTIQGGLQDGLQITVNGTVLSSSGTRFAVNFQTGFSGNDIAFHFNPRFEDGGYVVCNTRQNGSWGPEERKTHMPFQKGMPFDLCFLVQSSDFKVMVNGILFVQYFHRVPFHRVDTISVNGSVQLSYISFQHPPYPMPFITTILGGLYPSKSILLSGTVLPSAQRFHINLCSGNHIAFHLNPRFDENAVVRNTQIDNSWGSEERSLPRKMPFVRGQSFSVWILCEAHCLKVAVDGQHLFEYYHRLRNLPTINRLEVGGDIQLTHVQT
modifications: sGal-9
more pronounced: reduction in skin lesions compared to positive control (Mycophenolate) (MRL/FAS^lpr mice [3]; [5]) | inhibitory effect on lymphadenopathy compared to positive control (Mycophenolate) (MRL/FAS^lpr mice [3]; [5]) | reduction in skin lesions compared to positive control (Mycophenolate) (MRL/FAS^lpr mice [3]; [6]) | inhibitory effect on lymphadenopathy compared to positive control (Mycophenolate) (MRL/FAS^lpr mice [3]; [6])
reduced: skin lesions (skin score) compared to negative control (Vehicle) (MRL/FAS^lpr mice [3]; [5]) | skin lesions (skin score) compared to negative control (Vehicle) (MRL/FAS^lpr mice [3]; [6])
reduction: inflammatory cell infiltration within the glomeruli (MRL/FAS^lpr mice [2]; [5]) | inflammatory cell infiltration within the glomeruli (MRL/FAS^lpr mice [2]; [6])
decreased: IgG deposition in the kidney compared to negative control (Vehicle) (MRL/FAS^lpr mice [1]; [5]) | IgG deposition in the kidney compared to negative control (Vehicle) (MRL/FAS^lpr mice [1]; [6]) | concentration of anti-dsDNA antibodies in plasma compared to negative control (Vehicle) (anti-dsDNA antibodies; [5]) | concentration of anti-dsDNA antibodies in plasma compared to negative control (Vehicle) (anti-dsDNA antibodies; [6]) | glomerular lesion scores compared to negative control (Vehicle) (MRL/FAS^lpr mice [2]; [5]) | glomerular lesion scores compared to negative control (Vehicle) (MRL/FAS^lpr mice [2]; [6]) | lymphadenopathy score compared to negative control (Vehicle) (MRL/FAS^lpr mice [3]; [5]) | proteinuria compared to negative control (Vehicle) (MRL/FAS^lpr mice [3]; [5]) | lymphadenopathy score compared to negative control (Vehicle) (MRL/FAS^lpr mice [3]; [6]) | proteinuria compared to negative control (Vehicle) (MRL/FAS^lpr mice [3]; [6]) | spleen weight compared to negative control (Vehicle) (MRL/FAS^lpr mice [4])
superior reduction: reduction in anti-dsDNA antibody levels compared to positive control (Mycophenolate) (anti-dsDNA antibodies; [6])

Reference: patent US20250222068A1, “COMPOSITION FOR PREVENTING OR TREATING LUPUS COMPRISING RECOMBINANT STABILIZED GALECTIN-9 PROTEIN” (GBIOLOGICS INC., priority 2022, published 2025)
